This is an account of results in patent publication US20030147861A1, “Compounds and methods for the modulation of immune responses” (Genesis Research and Development Corporation Limited, priority 2001, published 2003).

Assay [1] deals with MAP kinase signaling pathway in THP-1 cells (IL-10 production). Kind of assay: AVAC-induced IL-10 production by THP-1 cells pre-treated with MAP kinase inhibitors (ELISA). Format: cell-based, human. The conditions noted are these: inhibitor pre-treatment 120 minutes; 25 μg/mL AVAC, 24 hours. As to the method:
The involvement of the MAP kinase signaling pathway in the production of IL-10 by THP-1 cells in response to AVAC was assessed as follows.
Prior to culture with AVAC, 50 μL of THP-1 cells in cRPMI-10 were pre-treated in duplicate microplate wells with 50 μL of serially diluted PD98059 (Calbiochem cat. no. 51300, a selective inhibitor of MAP kinase), SB202190 (Calbiochem cat. no. 559388, an inhibitor of p38 MAP kinase and p38β MAP kinase), SB203580 (Calbiochem cat. no. 559389, a highly specific inhibitor of p38 MAP kinase), with SB202474 (Calbiochem cat. no. 559387, a negative control for MAP kinase inhibition studies), or with no added chemicals. MAP kinase inhibitors and control were used at a final concentration of 100 μg/mL, 20 μg/mL, 4.0 μg/mL, 0.8 μg/mL, 0.16 μg/mL, or […]. Pretreatment of cells with MAP kinase inhibitors and control was for 120 minutes in a water-jacketed, humidified incubator at 37° C. supplied with 5% CO2 in air.
Following pretreatment, the cells were washed once in cPRMI-10 to remove inhibitor or control chemicals. […] IL-10 content in the microculture supernatants was determined by sandwich ELISA using a commercially available set (eBioscience cat. no. 88-7106-77,) according to the manufacturer's recommendations. […]

Assay [2] deals with CD69 on αβT cells, γδT cells and NK cells. Format: cell-based, human.
Assay [3] has as its system CD40, CD80 and CD86 on dendritic cells. The assay is classed as cell-based, human.
Assay [4] deals with popliteal lymph node cells. Kind of assay: Proliferation of lymph node cells from GV protein-immunized mice. The conditions noted are these: lymph node cells of mice immunized with 10 μg of the same GV protein in IFA. The assay is classed as cell-based, female BALB/cByJ mice. As to the method:
(§1) The immunogenicity of Mycobacterium vaccae recombinant proteins (referred to herein as GV recombinant proteins) was tested by injecting female BALB/cByJ mice in each hind foot-pad with 10 μg of recombinant GV proteins emulsified in incomplete Freund's adjuvant (IFA). Control mice received phosphate buffered saline in IFA. The draining popliteal lymph nodes were excised 10 days later and the cells obtained therefrom were stimulated with the immunizing GV protein and assayed for proliferation by measuring the uptake of tritiated thymidine. The amount of interferon gamma (IFNγ) produced and secreted by these cells into the culture supernatants was assayed by standard enzyme-linked immunoassay.

Assay [5] has as its system IFNγ production by lymph node cells. The assay is described as follows: IFNγ production by lymph node cells from GV protein-immunized mice (enzyme-linked immunoassay). The assay is classed as cell-based, female BALB/cByJ mice. The conditions noted are these: lymph node cells of mice immunized with the same GV protein. As to the method: as §1
In assay [6] the test system is IL-1β, TNF-α, IL-12 and IFN-γ production in PBMC. The assay is described as follows: Cytokine production in PBMC from normal donors (ELISA). The assay is classed as cell-based, human.
For assay [7], the system named is CD40, CD80 and CD86 on monocytes. Kind of assay: CD40, CD80 and CD86 expression on monocytes (3 color flow cytometry). Format: cell-based, human. The conditions noted are these: 20 ug/ml, 48 hours, vs non-stimulated cells. The text has this:
(§2) Stimulated cells were harvested and analyzed for up-regulation of CD40, CD80 and CD86 using 3 color flow cytometric analysis. Tables 16, 17 and 18 show the fold increase in mean fluorescence intensity from control (non-stimulated cells) for dendritic cells, monocytes, and B cells, respectively.

Assay [8] concerns CD40, CD80 and CD86 on B cells. Kind of assay: CD40, CD80 and CD86 expression on B cells (3 color flow cytometry). Format: cell-based, human. The conditions noted are these: 20 ug/ml, 48 hours, vs non-stimulated cells.
Text: as §2

[9] abbreviates: Dose of GV protein used in vitro 0.08 μg/ml.
The mark [10] stands for this setting: Dose of GV protein used in vitro 2 μg/ml.
The mark [11] stands for this setting: Dose of GV protein used in vitro 50 μg/ml.
Setting [12] is: dendritic cells, 20 ug/ml, 48 hours, vs non-stimulated cells.

As to `Oc1ccc(-c2nc(-c3ccncc3)c(-c3ccc(F)cc3)[nH]2)cc1` [SB202190], the “suppression of AVAC-induced production of IL-10 by THP-1 cells” value in assay [1] is recorded as “substantially suppressed in a dose-dependent manner”.

For `C[S+]([O-])c1ccc(-c2nc(-c3ccncc3)c(-c3ccc(F)cc3)[nH]2)cc1` (stereo not drawn) [SB203580], in assay [1], the “suppression of AVAC-induced production of IL-10 by THP-1 cells” value is listed as “substantially suppressed in a dose-dependent manner”.

Take cholera toxin [reference compound]: in assay [2], the “CD69 expression on NK cells, comparison with adjuvants” value is on record as “did not”. In addition, the “CD40, CD80 and CD86 expression in dendritic cells, comparison with adjuvants” value in assay [3] was “modest”.

B1: GV-33: recombinant M. vaccae antigen, amino acid sequence SEQ ID NO: 44 (protein, listed as Mycobacterium vaccae)
chain: MVRAALRYGFGTASLLAGGFVLRALQGTPAALGATPGEVAPVARRSPNYRDGKFVNLEPPSGITMDRDLQRMLLRDLANAASQGKPPGPIPLAEPPKGDPTPAPAAASWYGHSSVLIEVDGYRVLADPVWSNRCSPSRAVGPQRMHDVPVPLEALPAVDAVVISHDHYDHLDIDTIVALAHTQRAPFVVPLGIGAHLRKWGVPEARIVELDWHEAHRIDDLTLVCTPARHFSGRLFSRDSTLWASWVVTGSSHKAFFGGDTGYTKSFAEIGDEYGPFDLTLLPIGAYHPAFADIHMNPEEAVRAHLDLTEVDNSLMVPIHWATFRLAPHPWSEPAERLLTAADAERVRLTVPIPGQRVDPESTFDPWWRF
As for B1, the “Proliferation (cpm)” value is recorded as 8,764 ± 256 cpm in assay [4] (setting [9]), 27,529 ± 1,238 cpm in assay [4] (setting [10]) and 41,529 ± 1,919 cpm in assay [4] (setting [11]). Also, the entries for the “IFNγ” value in assay [5] (setting [10]), in assay [5] (Dose of GV protein used in vitro 10 μg/ml) and in assay [5] (setting [11]) were 1.52 ± 0.24 ng/mL, 8.44 ± 2.35 ng/mL and 7.71 ± 0.26 ng/mL, respectively.

B2: GV-35: recombinant M. vaccae antigen, amino acid sequence SEQ ID NO: 45 (protein, listed as Mycobacterium vaccae)
chain: MKANHSGCYKSAGPIWSHPSPLCSPALAPSHAGLDNELSLGVHGQGPEHLTIQQWDTFLNGVFPLDRNRLTREWFHSGKATYVVAGEGADEFEGTLELGYHVGFPWSLGVGINFSYTTPNITYDGYGLNFADPLLGFGDSIVTPPLFPGVSITADLGNGPGIQEVATFSVDVAGPGGSVVVSNAHGTVTGAAGGVLLRPFARLISSTGDSVTTYGAPLKHELTTSRWRPPGVNRGPLHAGREAPEVRSKWPTAANACARDSSSLTQGLVVVECHPVTPPHRPRRDGRGSGVWAPALGTYGGDRRRDVTSVAVFAGNPDGPAESPHPSSEPGGSKEF
On to B2, for which the “Proliferation (cpm)” value is on record as 1,626 ± 406 cpm in assay [4] (setting [9]), 9,968 ± 314 cpm in assay [4] (setting [10]) and 29,163 ± 2,693 cpm in assay [4] (setting [11]).

B3: GV-45: recombinant M. vaccae antigen, amino acid sequence SEQ ID NO: 52 (protein, listed as Mycobacterium vaccae)
chain: MNKAELIDVLTEKLGSDRRQATAAVENVVDTIVRAVHKGESVTITGFGVFEQRRRAARVARNPRTGETVKVKPTSVPAFRPGAQFKAVVSGAQKLPAEGPAVKRGVTATSTARKAAKKAPAKKAAAKKAAPAKKAPAKKAATKAAPAKKATAAKKAAPAKKATAAKKAAPAKKAPAKKAATKAAPAKKAPAKKAATKAAPAKKAPAAKKAPAKKAPAKRGGRK
In the case of B3, the “Proliferation (cpm)” value in assay [4] (setting [9]) was 1,497 ± 199 cpm; in assay [4] (setting [10]), 3,683 ± 1,127 cpm; in assay [4] (setting [11]), 9,554 ± 482 cpm. Moreover, the “percentage of αβT cells expressing CD69” value in assay [2] (PBMC from normal donors, 20 ug/ml, 24 hours, control 3.8) turned out to be 11.7%. For the same molecule, the “percentage of NK cells expressing CD69” value in assay [2] (PBMC from normal donors, 20 ug/ml, 24 hours, control 4.8) stood at 6.3%. Moreover, the “percentage of γδT cells expressing CD69” value in assay [2] (PBMC from normal donors, 20 ug/ml, 24 hours, control 6.2) was found to be 4.9%. For the same molecule, the “production of IL-1β, TNF-α, IL-12 and IFN-γ by PBMC” value in assay [6] was “stimulate the production of IL-1β, TNF-α and IL-12”. Further, the “CD40, CD80 and CD86 expression on dendritic cells” value in assay [3] (20 ug/ml, 48 hours, T cell-depleted PBMC) is given as “highest levels of expression”. Also, the “CD40 expression, fold increase in mean fluorescence intensity from control” value in assay [3] (setting [12]) is listed as 5.8 fold; in assay [7], 1.6 fold; in assay [8] it was 1.2 fold. In addition, the “CD80 expression, fold increase in mean fluorescence intensity from control” value in assay [3] (setting [12]) came to 3.0 fold; in assay [7] it was 1.2 fold; in assay [8], 1.1 fold. Moreover, the “CD86 expression, fold increase in mean fluorescence intensity from control” value in assay [3] (setting [12]) came to 3.1 fold; in assay [7], 1.0 fold; in assay [8] it was 1.3 fold.
